Assay results as given in the domain aggregation screens of Martell et al. (2025).

Experiment: soluble fraction after stress (log2 fold change); higher = more stays soluble; pooled small domains, quantitative proteomics
Details: stress: 75 degC
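Further: 20 min heating vs room temperature control held 20 min.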

Sequence	soluble fraction (log2)
HMRHKSNRRLTAAHQIEQQIQKLLMENTMEAKELKESLNFAAKDIDTVLSWLVDKDKVRINAINQYYWT	-0.434
HMRHRITEKDKQFRIGQQVWHSEYGKGMVLSVDGIGSSARLTVSFVSGKLAKIIGTFVSTEP	-3.47
HMRIETLESLANRLAYKAYRTGRKVELEPMNPFERRVIHTALQNSKYATTESEGEDMNRHIVIVPKEGG	-0.152
HMRILGIDPGSVVTGYGVIDKSGNYLRHVLHGEIKPHKGYLLSEVLMDIFSKLSAVIVETNPQSV	0.271
HMRINIVKSKNAEQLYIIHSYRINGKNTSKIYKKLGTMADLLPLHNHDRDQVLAWAKEQARLATEQYDQEN	-2.79
HMRIQLNFSDQLLDDVMSEALKHIDRKSQEHHIEKQMDDEFMLVYIDARLIIQVIVNIINNAIKY	0.168
HMRITEGEIVEIQEGDNRALVGVGEKLEGIISLDEIRGADGKLLFNVGDKITVMVMGHYNERPK	0.244
HMRITRREQQVLHLLAMGMTTREIAGHINLTERTVRNRISNLRDKLGAQTASQLLAKAVAQGLIEP	-2.69
HMRIVSGRESMLGRTVVVADWAGERGHVVVDGERWNAVASTPLAAGRRARIVGIDGLTLSVSPDDKP	0.0293
HMRKAERHLLIKQVIDEFTIRTQEELLAKLSDYGVNATQATISRDIRDLKIVKAPDENGISRFVFF	-1.73
HMRKGDDRLRAQVDEYISKQGNNTFNYKQVAHAINATSPISQRAVALYLAELAFDGDLLETAPGRYKSPSR	-0.0636
HMRKIKDVLRLKLHAGLSHERVAASLNISKGVVAKYTSLAAAAGLDWPTVERLSEAALERRLV	-0.181
HMRKIKEVLRLKFETGFSHERIAAAVGVSKGAVTKYVQRAVAAGLGWPLAPERDDAALEALLFPH	0.842
HMRKLDQRLAGLLLGKGRLVKATHQQLADELGSVREMVSRLLKGFAEHDLVRMSREQIEIVDAAGLRKLAD	-2
HMRKPDLTSVRTLIRSVSKLARHLKISPNGIYRWISVNRIPGAHVVKVANYYDVEIRDLVHLTGSD	-1.49
HMRLADHVVEKLLALVQDRGLQPGQKLPAERQLAEELGVSRTSVREAIQKLTSQGVLSARRGDGTYLQS	0.0739
HMRLARPLTPTEERVLRLLASDMSNAKIGEVLGIRLPTVKSHVSHIMQKLGVTSRAKARTAAQQLGI	-1.21
HMRLDPENFYIRAVTYYRNGDWQRALSQLDEAIKLGTAIEYPALQARIYLEQGMRDEFIAASEK	-1.86
HMRLDVALRGVLLDGDPTQSRAFVLVSGTTSTYRLGETVQSAELVAINADTITLRTETGLHVIGFDGLI	-2.77
HMRLEYLVDVEEISIKEYLMLLGLSRRLARKIKLYGKMYINHQEAFNYHLVKKGDLLTIEFDE	-2.85
HMRLIDVFELSPKNRTVLQLYYYEGYSVTEISKILKISVNGVTSRLSRARSKLKLEMEAAENE	-0.577
HMRLMLITPTEFDEAAEIADNLKDRRAVLMNVEKTDNETARRLIDFLSGVVYALGGKIMRISAQAYVLT	0.00546
HMRLPNGYGGVTKLSGRRRKPYMVRKTIGWHIDEKTDKKVQDYVVIGYAATKSEALQMLADYNNNPFDV	-2.93
HMRLSVVDLQDSLRGLEYPAGKGDLINHAREHNASADVIAVLEQFSERTYRSAADVGEEFGRV	0.152
HMRLTIAQLSEKTGVPERTIRYYIDRGLVPSAHGERRGAWYDTVHLEPLLRIQQWREAGLSLEAIADLLR	-1.72
HMRMLLEERLDEIVKIVNERGSISNQELVKMFGASESTIRRDITTLANDNRVIRVHGGAMSVVS	-0.333

Sequence	soluble fraction (log2)
HMRMTLKNKVEDIVHILRKDKQTSLSAILGDNTDRIQTIVVFLAILELVKQHLIKTDQNANFGDINLFPED	-0.000181
HMRNLFWTEAQNAQNELNAMRINALTQSIRRIEPNFRGIPSLRDPNRPIPNEEVRDYENYLNRILP	0.0375
HMRNMRKLWIARINAAARMNDISYSKLMHGLKLANVEINRKMLSEMAIDDPKSFTALVETAKKALNG	-1.49
HMRNPLYAQVADYVMQQIAAGTYRPHQAIPTEWQLAKKLEVSQGTVRKGLDELVFKQILYRQQGVGTFVAD	-1.31
HMRPAAELGLPHAPKHFIQYLTEDDRPQVLKDVDYEGGMGVSIGRLREDSIFDWKFVGLAHNTL	0.0714
HMRPADTAAMLKYLSSGAVKGIGGALAGRIIEAFGDESIKVIEEDPARLATVKGITLKKAKEISEEMQRVN	-0.0169
HMRPEFVVALSGADLGKLHRLYELGEVLSREDDAEGVTHAVLRVPDKHEHAFHAEFPQARPM	0.879
HMRPIDEVFGFFSRPENLTVITPSNLHFNILTPRPLEMKQGAVIDYTIKIFKVPIHWRTLITTYDPPFKFV	0.059
HMRPILTLEEAKAKALAHAGLKADQVTFTEAKLDWDDGKQVYDIEFYTADFKEYDYEIDAKTGEVLEVDY	-0.466
HMRPKAIFVDVDDTLVRSVGQTRIPMPAVIAHIRRLHDAGHQLYLWSSGGADYARASAEELGIGQYFQAFL	-0.268
HMRPRWTEQEVERAKAIKMIYPNAYRLESSDVFVQVWSKEEILLAHVEVDMFPSLRPGQPVELDEIIG	-1.19
HMRPTAWDQISDWLDRHGSIANADVVRIAGLDTLKASKLLTTWREQGLLEPLPGRGKRNMAYVRAI	-0.887
HMRPTVNETQIREVFRSILGREVDPEGLRHYLGQAAKGWSIDQIRADVNNSQEAHQRRAELARQAEELK	-0.0425
HMRQDEKTLLYWIAGHLKREGRQITERSARHLVEQVGTDMENLSREMEKLIAYTMGRTEITGQDIDDI	-1.77
HMRQEIIEDSRKLLEESLKRYDLTYQEFIDTLKSKNMNVESTLINIIKNQSSLDLVLRNLGLIAP	-0.0293
HMRQISDPTALASMVDKVIEDNPSAVADYRRGESKALGFLIGRVMQSSGGKANPKMIRGLLVKNLES	-0.284
HMRQMIIIMQKQAAASSVAAVVEFIRSKGLREHISPGAERTIIGAVGDERVFLPQELESLPQVERAIRVL	-3.67
HMRQPAAVEYSTFLDWVHASQVERVVFEGDTIRGVRVTGEGFVTYSPETDNTALIGELKKSRVQISATAP	-0.508
HMRQQAFWALVPEERDVLDETGAPLFRIGPTAWALVIEDRGEVFVVRDEDGRVGYLHEVDGVTR	-1.57
HMRQQLAEILQKAVDNLPEAQRLVWLLRDKSDMTFKEIAEDLQLTEANVRVLLHRARLKLLAVINQYEE	-1.66
HMRQYKEMPYRLFLIHLGKGLVDEVELSDKAKLTGKLKNGKIFITDNPRTENFKEQLLLHDVKVKEG	-0.329
HMRQYTPEQLETAVLVLEEVRQGRRLDRALRSHPMPDGRLIAKHVLVAAYRKLVAEGTWKEDPEFLSRIRM	-2
HMRRADRLLQLIQILRRHRRPVTGDVMARELEVSLRTVYRDIATLTIEGVPIRGEAGVGYVLGEGY	-2.41
HMRRDEDLAHGRELLEKELRKQGLEVSENLKQDKLLEGAKRLGFLEAEDLVVAVGSGKVSAGMAVGRIIG	-0.114
HMRREKVLIKLAENLASKVLRTKKSIELEPMTPYERKVIHTTIENISGVKSWSEGENLQRHLIVALDE	-1.5
HMRRGPLTPDDFVLDMRVVHPRYGVGRIVALSGSGESRKATVDFGGSIGRMKFVLSQSPLKP	-1.34

Sequence	soluble fraction (log2)
HMRRHLLEMNDAIGRLGRLISEDPADRDVAEVIWAALRGMVMGQMIMNEPIDWQRERRTLVEMAIGR	0.0485
HMRRIADVVPEQLTREEAEELLETLAEQGEIHEEQALLARYILEQSLQGVAPEVEPLIRAKLLAGILMVY	-2.18
HMRRKDIEFTNTMLEELYRHNSKWYDAVVRAYALEIPQKQIAEEMGIRLEAFQSMLFRAKKWIKTKYEADY	-2.83
HMRRNLSGEDTIVNRMAQWQYTQEQKNELHKMMDAGMPQEDILSVFYPEIKAEEMHRFLLAFQTAHNSG	-0.344
HMRRPRGVFNLVPRGFKRFGFITPDGGGEDMFAHLENVRAGHVVEDRNAVEYGIGRGPDGRDQAVDIVPVP	-0.0889
HMRRPTYPTVTTEAGMVVEDRSSGFVGDIVRWSFEGVTLRDRQQQLRHFTWKPGGFLINGTPVTLKRPE	-0.733
HMRRRVIGTLVMGDMSTDFKVLADGHTHRVLAAAISFHKAKPGDEVVILVPKSAPSKWAAVEHVMK	0.033
HMRSAKLPYSEFLKLVDTDKVNDVSIVGRTISGHLDDGSKFSTYTPPNDPNIIEKLSSHNVIINSAPE	0.0959
HMRSASFDIMSQKQSDATLGYERVYDTETNEVYKAYNGFTDDYDGERYKSISDNMYTKGISGYIEK	0.39
HMRSDSEIKEDVLDELMWQPNIDETQIGVIVEKGVVTLTGFVDAYAKKTAALDAVKNVKGVKAVANDIEV	0.131
HMRSFGRLRRRDSGRWEAAYVGPDARLYRAPATFEAKDDAIAWLSAERRMIELDTWIKPHDRASR	-1.78
HMRSGFAFSEEEIKHLDNIVSPLLIKGQSIHHISIFHKDEVMMSERTLYSYVNNGLFSARNIDMPRTVRMR	0.476
HMRSISVEMDGKEYLIPTVSENGKVLSDDDAVKQFKKTGKHLDVFDSPEDATAYARQLHEDQESFYA	0.231
HMRSKTDLVYEEIKKLILRGELSSDTPISENHLARRFEISRTPIREALKRLHIEGFVRIIPNHGVFVR	-2.15
HMRSLAVGNVVSEEGKPSYLLLDSKRTMLFSENSIPSLYLEDGRRVIVNYTLLDEDYQGYDFRIHVNDIDT	-0.00205
HMRSNADALIGRTARVSQTIVENGFGRVALDGDDWKAQAADGSRIEEGQNVIVKDRDSIILTVEKE	0.243
HMRSNIYTEEKLWTVLQDFFQENRYLTISLMRMKFGLSRHMAQKWIDHFIAKGLLVKDGTPRSPIYFLND	-2.46
HMRSNQKVSQIAISQVLPGMVTAKNVYSRNDQLILNRETTLDSTKIAKIMFYAIESIYVYEPE	-2.21
HMRSPVDALSNRELQVLQMVGRGLSSRQVAEALHLSVKTVEAHRQRIKGKLGLRTGAQLVQFAANWVTG	-1.75
HMRSREGVRWIIRERIMEELQERHHMDDGELLEMIDRSIGEMGQEIFLPLKERIWLRGSLFDSFR	-3.07
HMRSWRDQRVDDLLAAVSELGMTMSRAAAGDLLDQRVEYVANQMRVTPATARKYLTEETLAGMAREIVFG	-1.02
HMRTAFPQLTERELEILDLIAAGRNNAQIASALYLAPKTVRNNVSNILAKLQATDRAEAIIRARDAGLGG	-0.201
HMRTAKEVFYKELKGYMQNGDELSVKKIYSLFPEINPKTVSWRLHELVQHGKIHRTGHGYYALTQ	-1.37
HMRTDTIINSGGLKINPEEVENEILKSLGDNNFFIDKIKNDKFGEEIILIALKKIKINLLIESLNLI	0.0576
